Where two headings read alike, the source gives them in different places.
B1: Escherichia coli DnaT protein (natural protein, E. coli, UniProt P0A8J2 1-179, looked up)
chain: MSSRVLTPDVVGIDALVHDHQTVLAKAEGGVVAVFANNAPAFYAVTPARLAELLALEEKLARPGSDVALDDQLYQEPQAAPVAVPMGKFAMYPDWQPDADFIRLAALWGVALREPVTTEELASFIAYWQAEGKVFHHVQWQQKLARSLQIGRASNGGLPKRDVNTVSEPDSQIPPGFRG

Tests used:
[1] = molecular target: DnaT N-terminal core domain (E. coli); experiment: fluorescence polarisation
[2] = molecular target: DnaT N-terminal core domain (E. coli); experiment: fluorescence polarisation; remark: listed apart in the source
AUC = molecular target: the molecule itself; experiment: AUC
[3] = molecular target: the molecule itself; experiment: fluorescence polarisation

Molecule	dH [1] [kcal/mol]	dH [2] [kcal/mol]	stoichiometry N (AUC)	dH [3] [kcal/mol]
DnaT N-terminal core domain (domain or fragment)	-4.6	2.2	–	–
B1	–	–	3	-15 ± 2
